Substitutions are numbered along the chain they refer to.
B1: PFF3 Fab (Fab, V domains shown)
VH: QVQLVQSGGGLVQPGGSLRLSCSASGFTFSSYAIHWVRQAPGKGLEYVSAISSNGGSTYYADSVKGRFTISRDNSKNTLYLQMNSLRAEDTAVYYCARVYGYGLHYYGMDVWGQGTTVTVSS
VL: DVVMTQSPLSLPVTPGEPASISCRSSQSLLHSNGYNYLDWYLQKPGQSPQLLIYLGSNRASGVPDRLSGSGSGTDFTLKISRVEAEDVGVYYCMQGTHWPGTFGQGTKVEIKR
notes: Printed entries run through CL and CH1 (Fab chains); Label F3 tied to PFF3 by inference
B2: PFA1 Fab (Fab, V domains shown)
VH: EVQLVQSGGGVVQPGRSLRLSCAASGFTFSSYGMHWVRQAPGKGLEWVAVISYDGSNKYYADSVKGRFTISRDNSKNTLFLQMNSLRAEDTAVYYCARDLFAVVGYYYYYGMDVWGQGTTVTVSS
VL: EIVLTQSPFSLPVTPGEPASISCRSSQSLLHSNGFNYLDWYLQKPGQSPQLLIYLGSNRASGVPDRFSGSGSGTDFTLKISRVEAEDVGVYYCMQGLQTPYTFGQGTKLEIKR
notes: Entries are labelled light/heavy chain VD but as printed run through CL and CH1 (Fab chains); Label A1 tied to PFA1 by inference
B3: PFF2 Fab (Fab, V domains shown)
VH: QMQLVQSGGGVVQPGRSLRLSCAASGFSFKNYGMHWVRQAPGKGLEWVAFISYDGTNKYYADSVKGRFTISRDNSKNTLYLQMNSLRAEDTAVYYCAKHYGDYYYYYGMDVWGQGTTVTVSS
VL: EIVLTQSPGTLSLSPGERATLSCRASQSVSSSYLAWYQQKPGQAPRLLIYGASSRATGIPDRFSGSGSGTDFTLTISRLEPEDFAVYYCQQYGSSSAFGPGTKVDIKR
notes: Printed entries run through CL and CH1 (Fab chains); Label F2 tied to PFF2 by inference
B4: PFB1 Fab (Fab, V domains shown)
VH: QVQLQESGGGLVQPGGSLRLSCAASGFTFSSFAMNWVRQAPGKGLEWVSTIGGSGDSTFYADPVKGRFTVSRDNSKNTLYLQMNSLRAEDTAVYYCAQAYGSGGHYFFAYWGQGTLVTVSS
VL: DVVMTQSPLSLPVTPGEPASISCRSSQSLLHSNGNTYLDWYLQKPGQSPQVLIYSGSNRASGVPDRFSGSGSGTDFTLKISRVEAEDVGVYYCMQGTHWPPTFGQGTKVEIKR
notes: Printed entries run through CL and CH1 (Fab chains); Label B1 tied to PFB1 by inference
B5: PFB5 Fab (Fab, V domains shown)
VH: EVQLVQSGAEVKKPGSSVKVSCKASGGTFSSYAISWVRQAPGQGLEWMGGIIPIFGTANYAQKFQGRVTITADESTSTAYMELSSLRSEDTAVYYCARGRGSGYPDTWFWFDPWGQGTLVTVSS
VL: not shown
notes: Printed entries run through CL and CH1 (Fab chains); Label B5 tied to PFB5 by inference
B6: PFB3 Fab (Fab, V domains shown)
VH: QVQLQESGGGLVQPGGSLRLSCAASGFTFSSYAMSWVRQAPGKGLEWVSAISGSGGSTYYADSVKGRFTISRDNSKNTVYLQMNSLRAEDTAVYYCARTYYDFWSGRVGAFDIWGQGTTVTVSS
VL: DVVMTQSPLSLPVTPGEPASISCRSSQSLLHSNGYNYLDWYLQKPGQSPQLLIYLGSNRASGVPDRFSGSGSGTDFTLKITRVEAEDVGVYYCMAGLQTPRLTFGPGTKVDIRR
notes: Printed entries run through CL and CH1 (Fab chains); Label B3 tied to PFB3 by inference
B7: PFC3 Fab (Fab, V domains shown)
VH: QVQLVQSGGGLVQPGGSLRLSCAASGFTFSSYAMSWVRQAPGKGLEWVSGINWNGGSTGYADSVKGRFTISRDNSKNTLYLQMNSLRAEDTAVYYCAKGLVPAASMDVWGQGTTVTVSS
VL: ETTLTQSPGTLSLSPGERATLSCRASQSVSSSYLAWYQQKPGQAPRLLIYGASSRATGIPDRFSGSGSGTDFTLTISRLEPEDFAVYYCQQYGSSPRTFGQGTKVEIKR
notes: Printed entries run through CL and CH1 (Fab chains); Label C3 tied to PFC3 by inference
B8: PFG4 Fab (Fab, V domains shown)
VH: QVQLQQSGAEVKKPGSSVKVSCKASGGTFSSYAISWVRQAPGQGLEWMGGIIPIFGTANYAQKFQGRVTITADKSTSTAYMELSSLRSEDTAVYYCARGADWNSDYWGQGTLVTVSS
VL: QSVLTQPPSVSKALRQTATLTCTGNNNNVGFAGAAWFLQHQGHPPKLLAYRNNDRPSGISERFSASRSGNTASLTITGLQPEDEADYYCSAWDSSLKVQVFGGGTKLTVLG
notes: Printed entries run through CL and CH1 (Fab chains); Label G4 tied to PFG4 by inference
B9: PFD2 Fab (Fab, V domains shown)
VH: QVQLQQWGAGLLKPSETLSLTCAVYGGSFSGYYWSWIRQPPGKGLEWIGEINHSGSTNYNPSLKSRVTISVDTSKNQFSLKLSSVTAADTAVYYCARGLPYYYFDYWGQGTLVTVSS
VL: QSVVTQPPSVSGAPGQRVTISCTGRSANIGGFDVQWYRQLPGTAPQLLIYDNSNRPSGVPDRFSGSKSGTSATLAISGLQTGDEADYYCGTWDSYLNIWVFGGGTKLTVLS
notes: Printed entries run through CL and CH1 (Fab chains); Label D2 tied to PFD2 by inference
B10: PFE2 Fab (Fab, V domains shown)
VH: EVQLVQSGGGVVQPGRSLRLSCAASGFTFSSYAMHWVRQAPGKGLEWVAVISYDESNKYYADSVKGRFTISRDNSKNTLYLQMNSLRAEDTAVYYCAREPSGSWSYLYYYYYGMDVWGQGTTVTVSS
VL: DVVMTQSPLSLPVTPGEPASISCRSSQSLLRSDGYNFVDWYLQKAGQSPQLLIHLGSDRASGVPDRFSGSGSGTDFTLRISRVEAEDVGVYYCMQALQTPRTFGQGTKVEIKR
notes: Printed entries run through CL and CH1 (Fab chains); Label E2 tied to PFE2 by inference
B11: PFB2 Fab (Fab, V domains shown)
VH: EVQLVQSGAEVKKPGASVKVSCKASGYTFTSYGISWVRQAPGEGLEWMGWISAYNGNTNYAQKLQGRVTMTTDTSTSTAYMELRSLRSDDTAVYYCARDWGSSWSDYWGQGTLVTVSS
VL: ETTLTQSPATLSLSPGERATLSCRASQSVRNNLAWYQHKPGQAPRLLIYYASTRATGIPDRFSGSGSGTDFTLTISRLEPEDFALYYCQHYGSSRTFGQGTKVEIKR
notes: Printed entries run through CL and CH1 (Fab chains); Label B2 tied to PFB2 by inference
B12: PFA2 Fab (Fab, V domains shown)
VH: QVQLQQSGPGLVKPSQTLSLTCAISGESVSSAAAAWNWIRQSPSRGLEWLGRTYYRSKWYSEYAVSVKSRITINGDTSKNQVSLHLNAVTPEDTAIYYCVRGSIFDVWGQGTMVTVSS
VL: EIVLTQSPLSLPVTPGEPASISCRSSQSLLHSDGNKYLDWYLQKPGQSPQLLIYLGSNRASGVPERFSGSGSGTDFTLKISRVEAEDVGVYYCMLGTHWPPMYIFGQGTKLEIKR
notes: Printed entries run through CL and CH1 (Fab chains); Label A2 tied to PFA2 by inference
B13: clone A3 Fab (P1A3, from the phage display Fab library) (Fab, V domains shown)
VH: EVQLVQSGTEVKKPGASVRVSCKSSGYTFTSYYIHWVRQAPGQGLEWMAIINPGNGDTNYAQRFQGRVTMTRDTSTSTVYMELRSLRSDDTAVYFCAREIASYSGSYYDYWGQGTLVTVSS
VL: QAVVTQEPSLSVSPGGTVTLTCGLSSGSVSTGHYASWYQQTPGQAPRTLFYNTNTRSSGVPDRFSGSIVGNKAALTITGAQADDESDYYCVLYVGDGIWVFGGGTKLTVLG
B14: clone C5 Fab (P1C5, from the phage display Fab library) (Fab, V domains shown)
VH: QVQLQESGPGLVKPSETLSLTCTVSGGSISSSSYYWGWIRQPPGKGLEWIGSIYYSGSTYYNPSLKSRVTISVDTSKNQFSLKLSSVTAADTAVYYCARYAPDSSGYLVAFDIWGQGTMVTVSS
VL: QTVVTQEPSFSVSPGGTVTLTCGLSSGSVSTGYYPSWYQQTPGQAPRTLIYSTNSRSSGVPDRFSGSILGNKAALTITGAQADDESDYYCVLYMGSGISVFGGGTKLTVLG
B15: PFD3 Fab (Fab, V domains shown)
VH: EVQLVQSGAEVKKPGESLKISCKGSGYSFTSYWIGWVRQMPGKGLEWMGIIYPGDSDTRYSPSFQGQVTISADKSISTAYLQWSSLKASDTAMYYCARLGYGVPLPEYFDLWGRGTLVTVSS
VL: B14 VL with T2A, T5I, G23A, S25T, G32S, A45P, S55L, V91E, L107V
notes: Printed entries run through CL and CH1 (Fab chains); Label D3 tied to PFD3 by inference
B16: clone F1 Fab (P1F1, from the phage display Fab library) (Fab, V domains shown)
VH: QVQLVESGPGLVKPSGTLSLTCAVSGGSISSSNWWSWVRQPPGKGLEWIGEIYHSGSTNYNPSLKSRVTISVDTSKNQFSLKLSSVTAADTAVYYCARMGANSGGYLYGMDVWGQGTTVTVSS
VL: B14 VL with G32S, S55T, S99W
B17: clone E4 Fab (P1E4, from the phage display Fab library) (Fab, V domains shown)
VH: QVQLQQWGAGLLKPSETLSLTCAVYGGSFSGYYWSWIRQPPGKGLEWIGEINHSGSTNYNPSLKSRVTISVDTSKNQFSLKLSSVTTADTAVYYCARMGINSGGYLYGMDVWGQGTTVTVSS
VL: B14 VL with G32S, T41I, S52T, S55I, S65G, D83E, V91M, S99W
B18: PFA5 Fab (Fab, V domains shown)
VH: QVQLVQSGAEVKKPGASVKVSCKASGYTFTSYAMHWVRQAPGQRLEWMGWINAGNGNTKYSQKFQGRVTITRDTSASTAYMELSSLRSEDTAVYYCARGGYLVGYWGQGTLVTVSS
VL: not shown
notes: Printed entries run through CL and CH1 (Fab chains); Label A5 tied to PFA5 by inference
B19: PFD4 Fab (Fab, V domains shown)
VH: QVQLVQSGGGLVQPGGSLRLSCSASGFTFSSYAMHWVRQAPGKGLEYVSAISSNGGSTYYADSVKGRFTISRDNSKNTLYLQMSSLRAEDTAVYYCARSRGYYGMDVWGQGTTVTVSS
VL: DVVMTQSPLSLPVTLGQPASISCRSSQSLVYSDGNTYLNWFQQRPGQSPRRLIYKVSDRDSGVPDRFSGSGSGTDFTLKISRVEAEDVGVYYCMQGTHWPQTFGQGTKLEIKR
notes: Printed entries run through CL and CH1 (Fab chains); Label D4 tied to PFD4 by inference
B20: PFG2 Fab (Fab, V domains shown)
VH: EVQLVQSGGGLVQPGGSLRLSCAASGFTFSSYAMSWVRQAPGKGLEWVSSISSSSSYIYYADSVKGRFTISRDNAKNSLYLQMNSLRAEDTAVYYCARDGSAWSRPYWGQGTLVTVSS
VL: EIVLTQSPATLSLSPGERATLSCRASQSVSSYLAWYQQKPGQAPRLLIYDASNRATGIPARFSGSGSGTDFTLTISSLEPEDFAVYYCQQRSNWPLTFGGGTKVEIKR
notes: Printed entries run through CL and CH1 (Fab chains); Label G2 tied to PFG2 by inference
B21: PFA4 Fab (Fab, V domains shown)
VH: EVQLVQSGGGVVQPGRSLRLSCAASGFTFSSYAMHWVRQAPGKGLEWVAVISYDGSNKYYADSVKGRFTISRDNSKNTLYLQMNSLRAEDTAVYYCARSRGYYGMDVWGQGTTVTVSS
VL: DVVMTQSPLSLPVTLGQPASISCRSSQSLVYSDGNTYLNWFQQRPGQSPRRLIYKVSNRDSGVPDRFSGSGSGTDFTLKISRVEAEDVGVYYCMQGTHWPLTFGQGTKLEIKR
notes: Printed entries run through CL and CH1 (Fab chains); Label A4 tied to PFA4 by inference
B22: PFE5 Fab (Fab, V domains shown)
VH: B21 VH
VL: DIQMTQSPSSLSASVGDRVTITCRASQGISSWLAWYQQKPGKAPKLLIYAASSLQSGVPSRFSGSGSGTDFTLTISSLQPEDFATYYCQQANSFPPTFGPGTKVDIKR
notes: Printed entries run through CL and CH1 (Fab chains); Label E5 tied to PFE5 by inference
B23: PFD1 Fab (Fab, V domains shown)
VH: B21 VH with A33G, S75A, T78S, Y103S, M105Y, V107N, T113L
VL: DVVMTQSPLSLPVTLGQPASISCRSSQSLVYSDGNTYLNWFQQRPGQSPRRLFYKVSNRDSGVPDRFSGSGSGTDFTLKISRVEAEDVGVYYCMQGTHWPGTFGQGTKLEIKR
notes: Printed entries run through CL and CH1 (Fab chains); Label D1 tied to PFD1 by inference
B24: PFG1 Fab (Fab, V domains shown)
VH: EVQLVQSGGGVVQPGRSLRLSCAASGFTFSSYGMHWVRQAPGKGLEWVAVIWYDGSNKYYADSVKGRFTISRDNSKNTLYLQMNSLRAEDTAVYYCATMTTEDYWGQGTLVTVSS
VL: QAVLTQPSSLSASPGASASLTCTLRSGINVGTYRIYWYQQKPGSPPQYLLRYKSDSDKQQGSGVPSRFSGSKDASANAGILLISGLQSEDEADYYCMIWHSSAWVFGGGTKLTVLG
notes: Printed entries run through CL and CH1 (Fab chains); Label G1 tied to PFG1 by inference

Tests used:
[1] = biological target: T1, human HER-2 protein (soluble / recombinant, used in SPR) (human, UniProt P04626 23-652); test: SPR, immobilized HER2 protein
T1 construct: also called immobilized HER2 protein; recombinant HER-2

[2] = biological target: T1, human HER-2 protein (soluble / …); test: SPR, human HER2 immobilised, Fab flown, 1:1 Langmuir model
Method: Rate constants of association, dissociation (kₐ, kd) and the equilibrium dissociation constants (KD) were determined for anti-HER2 Fab molecules. Human HER2 protein (50 μg/mL) was immobilised on the SPR sensor chip and was exposed to five different concentrations of each Fab in 2- or 3-fold dilutions over the flow cells. 1:1 Langmuir model was used to derive the constants.

| Binder | koff [1] [s⁻¹] | also measured |
| --- | --- | --- |
| B1 | 0.00324 | – |
| B2 | 0.00415 | – |
| B3 | 0.0047 | – |
| B4 | 0.00565 | – |
| B5 | 0.017 | Kd [2]: 0.112 µM; koff [2]: 0.02 s⁻¹; kon [2]: 176000 M⁻¹ s⁻¹ |
| B6 | 0.0102 | – |
| B7 | 0.0528 | Kd [2]: 0.0153 µM; koff [2]: 0.063 s⁻¹; kon [2]: 4.11e+06 M⁻¹ s⁻¹ |
| B8 | 0.00063 | – |
| B9 | 0.00486 | – |
| B10 | 0.0187 | – |
| B11 | 0.000177 | – |
| B12 | 0.00218 | – |
| B13 | 0.00416 | – |
| B14 | 0.00448 | – |
| B15 | 0.0272 | – |
| B16 | 0.00502 | – |
| B17 | 0.00181 | – |
| B18 | 0.00326 | – |
| B19 | 0.0342 | – |
| B20 | 0.000499 | – |
| B21 | 0.0196 | Kd [2]: 0.0205 µM; koff [2]: 0.042 s⁻¹; kon [2]: 2.03e+06 M⁻¹ s⁻¹ |
| B22 | 0.00152 | – |
| B23 | 0.0714 | – |
| B24 | 0.000324 | – |
